How the values were obtained:
[1] = biological target: Recombinant baculovirus-expressed HIV-1 gp120 derived from the MN isolate (HIV-1 isolate MN) (UniProt P05877); assay: competition: 125I-CD4 on immobilized gp120, 10-fold molar excess of peptide; isolate (MN or LAI) not stated
[2] = biological target: CHO cell-expressed soluble recombinant CD4 (UniProt P01730); assay: competition: 125I-CD4 on immobilized gp120 (MN and LAI), 10-fold molar excess of fusion protein
[3] = biological target: CSVTCG peptide derived from TSP1 properdin-like Type 1 repeat; assay: solid phase binding, 125I-gp120 on immobilized peptide, saturation isotherms
[4] = biological target: Recombinant baculovirus-expressed HIV-1 gp120 derived from the LAV isolate (HIV-1 isolate LAV (LAI)) (UniProt P03377); assay: competition: 125I-CD4 on immobilized gp120, 10-fold molar excess of peptide; isolate (MN or LAI) not stated

| Substance | % inhibition [1] | % inhibition [2] | further results |
| --- | --- | --- | --- |
| CSVTCG peptide derived from TSP1 properdin-like Type 1 repeat | 53% | – | – |
| GST/LIMPII fusion protein LFP75-155 (from UniProt Q14108 75-155) | – | 89% | – |
| GST/LIMPII fusion protein LFP156-243 (from UniProt Q14108 156-243) | – | 32% | – |
| GST/CD36 fusion protein CFP67-157 (from UniProt P16671 67-157) | – | 89% | – |
| Recombinant baculovirus-expressed HIV-1 gp120 derived from the LAV isolate (from UniProt P03377 33-516) | – | – | Kd [3]: 300 nM |
| GRGDS peptide derived from TSP1 calcium binding Type 3 repeat | 4% | – | % inhibition [4]: 4% |
